Reference: publication PMC4404499 (The Biochemical journal, 2014)
Residue numbers refer to the chain shown, from its start.

Columns and labels:
Test in all cases: pull-down
GST-tagged TRIM3 Y49A = biological target: T1, GST-tagged TRIM3 Y49A (mouse, UniProt Q9R1R2 1-744, Y49A)
T1 sequence (looked up): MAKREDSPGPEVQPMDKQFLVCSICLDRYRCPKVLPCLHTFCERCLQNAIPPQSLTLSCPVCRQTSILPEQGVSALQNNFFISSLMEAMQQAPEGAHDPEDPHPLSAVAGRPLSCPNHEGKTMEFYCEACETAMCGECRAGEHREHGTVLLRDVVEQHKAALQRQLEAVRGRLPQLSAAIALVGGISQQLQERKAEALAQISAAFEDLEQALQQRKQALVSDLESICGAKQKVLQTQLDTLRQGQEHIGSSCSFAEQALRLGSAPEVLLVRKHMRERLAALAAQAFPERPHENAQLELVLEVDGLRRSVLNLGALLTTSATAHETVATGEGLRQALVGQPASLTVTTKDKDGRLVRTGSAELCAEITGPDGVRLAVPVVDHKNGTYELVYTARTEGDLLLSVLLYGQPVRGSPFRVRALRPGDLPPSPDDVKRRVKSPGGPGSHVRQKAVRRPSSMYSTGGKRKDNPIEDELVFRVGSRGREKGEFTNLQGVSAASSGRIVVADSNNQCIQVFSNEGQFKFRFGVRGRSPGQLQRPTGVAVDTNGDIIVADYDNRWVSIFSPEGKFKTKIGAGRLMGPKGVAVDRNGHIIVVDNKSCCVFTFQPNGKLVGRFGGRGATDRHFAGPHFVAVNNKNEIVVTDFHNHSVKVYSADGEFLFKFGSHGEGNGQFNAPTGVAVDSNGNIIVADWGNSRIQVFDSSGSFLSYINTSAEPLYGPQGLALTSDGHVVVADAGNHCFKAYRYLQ

GST-tagged TRIM3 N48A = biological target: T2, GST-tagged TRIM3 N48A (mouse, UniProt Q9R1R2 1-744, N48A)
T2 sequence (looked up): T1 sequence (looked up) with N48A, A49Y

GST-tagged TRIM3 I50A = biological target: T3, GST-tagged TRIM3 I50A (mouse, UniProt Q9R1R2 1-744, I50A)
T3 sequence (looked up): T1 sequence (looked up) with A49Y, I50A

GST-tagged TRIM3 L55A = biological target: T4, GST-tagged TRIM3 L55A (mouse, UniProt Q9R1R2 1-744, L55A)
T4 sequence (looked up): T1 sequence (looked up) with A49Y, L55A

binding result (GST-tagged TRIM3 Y49A): binds | binding result (GST-tagged TRIM3 N48A): binds | binding result (GST-tagged TRIM3 I50A): binds | binding result (GST-tagged TRIM3 L55A): binds
B1: His-tagged p21 (wild-type) (natural protein, UniProt P39689 1-159, looked up)
chain: MSNPGDVRPVPHRSKVCRCLFGPVDSEQLRRDCDALMAGCLQEARERWNFDFVTETPLEGNFVWERVRSLGLPKVYLSPGSRSRDDLGGDKRPSTSSALLQGPAPEDHVALSLSCTLVSERPEDSPGGPGTSQGRKRRQTSLTDFYHSKRRLVFCKRKP
